Data published in patent US20120014941A1 (Hoffmann-La Roche, published 2012).
Where two headings read alike, the source gives them in different places.

T1: recombinant human Bv8 (PeproTech) (human, UniProt Q9HC23-2 28-108, biotinylated (Sulfo-NHS-LC-biotin) in the two competition ELISAs with coated antibody)
T1 construct: Bought protein; also called HuBv8; prokineticin-2
T1 sequence (looked up): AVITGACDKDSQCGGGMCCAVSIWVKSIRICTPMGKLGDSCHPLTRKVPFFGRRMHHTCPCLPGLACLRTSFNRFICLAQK


Legend:
[1] = molecular target: T1, recombinant human Bv8 (PeproTech); assay: competitive ELISA: antibody in serial dilution mixed with biotinylated human Bv8 (57 pM) and put on plate coated with mouse 2G9 IgG1 (m5, the competitor); streptavidin-HRP, OD 450/620; four-parameter fit
Description: Maxisorp 384 well plates were coated with 1 μg/ml parent mouse 2G9 IgG1 antibody at 25 μl/well in 50 mM sodium carbonate buffer, pH 9.6, at 4° C. overnight. Plates were washed with phosphate buffered saline (PBS) containing 0.05% polysorbate, pH 7.4 and blocked with PBS containing 0.5% BSA, 10 ppm Proclin, pH 7.4, at 80 μL1/well. After one-hour incubation at room temperature, plates were washed. A mixture of serially diluted humanized 2G9 antibodies (0.11 pM-180 nM) in PBS containing 0.5% BSA, 0.05% polysorbate 20, pH 7.4 and biotinylated human Bv8 (final concentration 0.5 ng/ml or 57 pM) were added at 25 μL1/well. After two hour incubation, plates were washed and horseradish peroxidase conjugated streptavidin (GE Healthcare) was added. After a final 30 minute incubation, plates were washed and the substrate 3,3′,5,5′-tetramethyl benzidine (Kirkegaard & Perry Laboratories) was added. The reaction was stopped by adding 1 M phosphoric acid and absorbance was read at 450 nm on a Multiskan Ascent reader (Thermo Scientific, Hudson, N.H.). For data analysis, the titration curves were fitted using a four-parameter nonlinear regression curve-fitting program and the IC₅₀ concentrations were determined (KaleidaGraph, Synergy Software, Reading, Pa.).

[2] = molecular target: T1, recombinant human Bv8 (PeproTech); assay: SPR (BIAcore 3000, 25 C): human Bv8 coupled to CM5 chip, IgG injected; 1:1 Langmuir fit
Text: (§1) For binding affinity determinations of anti-Bv8 antibodies (Fab or IgG), Surface Plasmon Resonance (SRP) measurement with a BIAcore™-3000 instrument was used. Briefly, CM5 biosensor chip was activated with EDC and NHS reagents according to the supplier's instructions, and human Bv8 (PeproTech) or Cynomologus Monkey (Genentech; PUR21590) was coupled to achieve approximately 150 response units (RU), then following by blocking un-reacted groups with 1M ethanolamine. For kinetics measurements, two-fold serial dilutions of anti-Bv8 Fabs (0.19 nM to 25 nM) or IgGs (0.019 nM to 10 nM) were injected in HBS-P buffer (0.01M HEPES pH 7.4, 0.15M NaCl, 0.005% surfactant P20) at 25° C. with a flow rate of 30 μl/min. Association rates (kₒₙ) and dissociation rates (koff) were calculated using a simple one-to-one Langmuir binding model (BIAcore Evaluation Software version 3.2). The equilibrium dissociation constant (Kd) was calculated as the ratio koff/kₒₙ.

[3] = molecular target: Cynomologus Monkey Bv8 (Genentech; PUR21590) (cynomolgus monkey); assay: SPR (BIAcore 3000, 25 C): cynomolgus monkey Bv8 coupled to CM5 chip, IgG injected; 1:1 Langmuir fit
[4] = molecular target: T1, recombinant human Bv8 (PeproTech); assay: SPR (BIAcore 3000, 25 C): human Bv8 coupled to CM5 chip, Fab injected; 1:1 Langmuir fit
Text: as §1

[5] = molecular target: T1, recombinant human Bv8 (PeproTech); assay: SPR (BIAcore 3000, 25 C): human Bv8 coupled to CM5 chip, Fab injected; 1:1 Langmuir fit; N=3
Text: as §1

[6] = molecular target: Cynomologus Monkey Bv8 (Genentech; PUR21590) (cynomolgus monkey); assay: SPR (BIAcore 3000, 25 C): cynomolgus monkey Bv8 coupled to CM5 chip, Fab injected; 1:1 Langmuir fit
[7] = molecular target: T1, recombinant human Bv8 (PeproTech); assay: phage competition ELISA: Fab-displaying phage preincubated with serially diluted soluble human Bv8 (the concentration on the axis), unbound phage captured on plate-coated human Bv8, anti-M13-HRP; bound phage in %
Description: (§2) MAXISORP™ microtiter plates were coated with recombinant human Bv8 (PeproTech) at 2 μg/ml in PBS overnight and then blocked with PBST buffer (0.5% BSA and 0.05% Tween 20 in PBS) for an hour at room temperature (RT). Phage from culture supernatants were incubated with serially diluted human Bv8 in PBST buffer in a tissue-culture microtiter plate for an hour at RT, after which 80 μl of the mixture was transferred to the target-coated wells for 15 minutes to capture unbound phage. The plate was washed with PBT buffer (0.05% Tween 20 in PBS), and HRP-conjugated anti-M13 (Amersham Pharmacia Biotech) was added (1:5000 in PBST buffer) for 40 minutes. The plate was washed with PBT buffer and developed by adding tetramethylbenzidine substrate (Kirkegaard and Perry Laboratories, Gaithersburg, Md.). The absorbance at 450 nm was plotted as a function of target concentration in solution to determine phage IC₅₀.

[8] = molecular target: T1, recombinant human Bv8 (PeproTech); assay: as above; remark: listed apart in the source
Description: as §2

Binder	IC50 [1] [nM]	Kd [4] [nM]	koff [4] [s⁻¹]	kon [4] [M⁻¹ s⁻¹]	Kd [5] [nM]	koff [5] [s⁻¹]	kon [5] [M⁻¹ s⁻¹]	Kd [6] [nM]	koff [6] [s⁻¹]	kon [6] [M⁻¹ s⁻¹]	IC50 (read off the curve) [7] [nM]	IC50 (read off the curve) [8] [nM]	also measured
h2G9.K4G1.v55 Fab (Fab, V domains shown, Variable domains only; claims 8 and 9)) VH: EVQLVQSGAEVKKPGASVKVSCKASGYSFTDYDMHWVRQAPGQGLEWIGYISSYSGATTYNQKFKGRVTITVDKSTSTAYLELSSLRSEDTAVYYCARDSNYGEAYAMDYWGQGTLVTVSS VL: DIVMTQSPDSLAVSLGERATINCKASQSLDYYHYSYMNWYQQKPGQPPKLLIYAASNRESGVPDRFSGSGSGTDFTLTISSLQAEDVAVYYCQQINEDPFTFGQGTKVEIKR	–	0.18	7.2e-05	396000	0.28	0.000136	484000	0.42	0.000129	310000	~0.06	–	–
h2G9.K4G1 (antibody, V domains shown, also called h2G9.K4G1 anti-Bv8 antibody) VH: EVQLVQSGAEVKKPGASVKVSCKASGYSFTDYDMHWVRQAPGQGLEWIGYISCYNGATTYNQKFKGRVTITVDKSTSTAYLELSSLRSEDTAVYYCARDGNYGEAYAMDYWGQGTLVTVSS VL: DIVMTQSPDSLAVSLGERATINCKASQSVDYDGDSYMNWYQQKPGQPPKLLIYAASNLESGVPDRFSGSGSGTDFTLTISSLQAEDVAVYYCQQINEDPFTFGQGTKVEIK	0.984	–	–	–	–	–	–	–	–	–	–	–	–
h2G9.K4G1.Polish Fab (Fab, V domains shown, also called polished K4G1) VH: EVQLVQSGAEVKKPGASVKVSCKASGYSFTDYDMHWVRQAPGQGLEWIGYISSYSGATTYNQKFKGRVTITVDKSTSTAYLELSSLRSEDTAVYYCARDSNYGEAYAMDYWGQGTLVTVSS VL: DIVMTQSPDSLAVSLGERATINCKASQSVDYSGDSYMNWYQQKPGQPPKLLIYAASNLESGVPDRFSGSGSGTDFTLTISSLQAEDVAVYYCQQINEDPFTFGQGTKVEIK	–	–	–	–	1.44	0.000689	475000	–	–	–	~0.2	~0.2	–
h2G9.K4G1 variant CDR-L1 G29S (Fab, V domains shown) VH: EVQLVQSGAEVKKPGASVKVSCKASGYSFTDYDMHWVRQAPGQGLEWIGYISCYNGATTYNQKFKGRVTITVDKSTSTAYLELSSLRSEDTAVYYCARDGNYGEAYAMDYWGQGTLVTVSS VL: DIVMTQSPDSLAVSLGERATINCKASQSVDYDSDSYMNWYQQKPGQPPKLLIYAASNLESGVPDRFSGSGSGTDFTLTISSLQAEDVAVYYCQQINEDPFTFGQGTKVEIK	–	–	–	–	–	–	–	–	–	–	~1	–	–

The next lines start with results.

IC50 [1] [nM]	Kd [4] [nM]	koff [4] [s⁻¹]	kon [4] [M⁻¹ s⁻¹]	Kd [5] [nM]	koff [5] [s⁻¹]	kon [5] [M⁻¹ s⁻¹]	Kd [6] [nM]	koff [6] [s⁻¹]	kon [6] [M⁻¹ s⁻¹]	IC50 (read off the curve) [7] [nM]	IC50 (read off the curve) [8] [nM]	Binder	also measured
0.084	–	–	–	–	–	–	–	–	–	–	–	h2G9.K4G1.Polish IgG (antibody, V domains shown, IgG; constant regions not described for the humanized antibodies; also called parental polished K4G1 molecule) VH: EVQLVQSGAEVKKPGASVKVSCKASGYSFTDYDMHWVRQAPGQGLEWIGYISSYSGATTYNQKFKGRVTITVDKSTSTAYLELSSLRSEDTAVYYCARDSNYGEAYAMDYWGQGTLVTVSS VL: DIVMTQSPDSLAVSLGERATINCKASQSVDYSGDSYMNWYQQKPGQPPKLLIYAASNLESGVPDRFSGSGSGTDFTLTISSLQAEDVAVYYCQQINEDPFTFGQGTKVEIK	Kd [2]: 0.02 nM; koff [2]: 1.2e-05 s⁻¹; kon [2]: 528000 M⁻¹ s⁻¹; Kd [3]: 0.03 nM; koff [3]: 1.5e-05 s⁻¹; kon [3]: 454000 M⁻¹ s⁻¹
–	0.04	1.6e-05	359000	0.08	3.8e-05	471000	0.1	2.8e-05	267000	–	~0.09	h2G9.K4G1.v19 Fab (Fab, V domains shown, Variable domains only; claims 6 and 7)) VH: EVQLVQSGAEVKKPGASVKVSCKASGYSLTNYDMHWVRQAPGQGLEWIGYIHSYSGSTLYNQKFKGRVTITVDKSTSTAYLELSSLRSEDTAVYYCARDSNYGEAYAMDYWGQGTLVTVSS VL: DIVMTQSPDSLAVSLGERATINCKASQSVDYSGDSYMNWYQQKPGQPPKLLIYAASNLESGVPDRFSGSGSGTDFTLTISSLQAEDVAVYYCQQINEDPFTFGQGTKVEIKR	–
